# T1: human IL-4Rα (human, UniProt P24394 26-232)
# T1 construct: also called Hu IL-4Rα; hIL-4Rα
# T1 sequence: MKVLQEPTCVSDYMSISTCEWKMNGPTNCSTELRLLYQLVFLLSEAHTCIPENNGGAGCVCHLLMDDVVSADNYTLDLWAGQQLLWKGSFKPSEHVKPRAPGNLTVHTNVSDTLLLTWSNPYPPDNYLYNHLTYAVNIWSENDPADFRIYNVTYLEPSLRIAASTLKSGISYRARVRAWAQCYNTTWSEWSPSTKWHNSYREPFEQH
# T2: cynomolgus monkey IL-4Rα (cynomolgus monkey, UniProt P24394 26-231 (human entry), limits assumed)
# T2 construct: also called Cyno IL-4Rα; cyIL-4Rα
# T2 chain: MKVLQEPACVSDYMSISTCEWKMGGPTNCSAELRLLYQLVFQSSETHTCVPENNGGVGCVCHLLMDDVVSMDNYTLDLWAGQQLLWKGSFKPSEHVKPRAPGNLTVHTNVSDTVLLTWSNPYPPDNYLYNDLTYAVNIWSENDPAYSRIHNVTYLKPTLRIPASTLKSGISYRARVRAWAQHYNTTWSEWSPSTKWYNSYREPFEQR
# T3: hIL-4Rα on cells (human, UniProt P24394 26-825)
# T3 sequence: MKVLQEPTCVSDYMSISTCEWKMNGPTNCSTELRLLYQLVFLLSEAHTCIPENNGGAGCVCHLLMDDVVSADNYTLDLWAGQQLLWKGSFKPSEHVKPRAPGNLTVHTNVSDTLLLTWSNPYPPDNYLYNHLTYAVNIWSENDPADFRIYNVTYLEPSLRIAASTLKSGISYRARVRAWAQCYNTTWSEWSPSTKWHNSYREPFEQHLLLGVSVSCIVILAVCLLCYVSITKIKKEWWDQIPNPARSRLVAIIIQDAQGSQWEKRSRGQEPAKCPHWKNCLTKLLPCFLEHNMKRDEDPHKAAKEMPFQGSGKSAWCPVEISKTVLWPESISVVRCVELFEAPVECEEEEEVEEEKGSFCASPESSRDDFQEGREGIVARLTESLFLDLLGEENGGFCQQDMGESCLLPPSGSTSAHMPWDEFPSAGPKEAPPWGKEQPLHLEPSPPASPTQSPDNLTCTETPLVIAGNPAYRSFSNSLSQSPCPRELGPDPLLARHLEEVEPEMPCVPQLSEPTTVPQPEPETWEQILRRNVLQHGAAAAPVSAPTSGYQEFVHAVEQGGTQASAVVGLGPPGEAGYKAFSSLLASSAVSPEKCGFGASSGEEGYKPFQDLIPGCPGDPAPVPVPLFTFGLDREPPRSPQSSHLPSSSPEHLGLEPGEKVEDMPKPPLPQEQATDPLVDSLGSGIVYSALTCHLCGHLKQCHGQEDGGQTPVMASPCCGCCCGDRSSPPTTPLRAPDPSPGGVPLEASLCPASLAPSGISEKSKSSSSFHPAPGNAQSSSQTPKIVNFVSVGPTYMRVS
# Key:
# human IL-4Rα = target: T1, human IL-4Rα; experiment: SPR, Carterra LSA;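 further: antibodies captured on an anti-human Fc sensor chip, antigen injected at several concentrations, association and dissociation rates fitted with a 1:1 Langmuir model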
# cynomolgus monkey IL-4Rα = target: T2, cynomolgus monkey IL-4Rα; experiment: SPR, Carterra LSA;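 further: antibodies captured on an anti-human Fc sensor chip, antigen injected at several concentrations, association and dissociation rates fitted with a 1:1 Langmuir model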
# hIL-4Rα on cells [1] = target: T3, hIL-4Rα on cells; experiment: cell-based or functional assay
# hIL-4Rα on cells [2] = target: T3, hIL-4Rα on cells; experiment: cell-based or functional assay; remark: listed apart in the source
# hIL-4Rα on cells [3] = target: T3, hIL-4Rα on cells; experiment: cell-based or functional assay; remark: listed apart in the source
# hIL-4Rα on cells [4] = target: T3, hIL-4Rα on cells; experiment: FACS on HEK293 cells, competitor biotin-hIL-4;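 further: HEK293 cells stably co-expressing hIL-13Rα and hIL-4Rα, stained for 1 h at 4 °C, read-out as mean fluorescence intensity by flow cytometry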
# hIL-4Rα on cells [5] = target: T3, hIL-4Rα on cells; experiment: FACS on HEK293 cells, competitor biotin-hIL-13;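 further: stably transduced cells co-expressing both receptor chains, stained cold, with cell-bound signal read as mean fluorescence intensity by flow cytometry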
KD Relative to Dupilumab (human IL-4Rα),Kd (human IL-4Rα),KD Relative to Dupilumab (cynomolgus monkey IL-4Rα),Kd (cynomolgus monkey IL-4Rα),Relative Inhibition of IL-4 induced pSTAT6 IC50 (hIL-4Rα on cells [1]),Relative Inhibition of IL-13 induced pSTAT6 IC50 (hIL-4Rα on cells [1]),Relative Inhibition of IL-4 induced TARC IC50 (hIL-4Rα on cells [2]),Relative Inhibition of IL-13 induced TARC IC50 (hIL-4Rα on cells [2]),Relative Inhibition of IL-4 induced TF-1 Proliferation IC50 (hIL-4Rα on cells [3]),Relative Inhibition of IL-13 induced TF-1 Proliferation IC50 (hIL-4Rα on cells [3]),Relative Blockade of IL-4 Binding IC50 (hIL-4Rα on cells [4]),Relative Blockade of IL-13 Binding IC50 (hIL-4Rα on cells [5]),Binder
0.72,0.0081 nM,0.02,15.7 nM,0.63 relative to dupilumab,0.624 relative to dupilumab,0.693 relative to dupilumab,1.39 relative to dupilumab,0.486 relative to dupilumab,0.851 relative to dupilumab,0.887 relative to dupilumab,0.695 relative to dupilumab,"Construct 29 (mAb437) (antibody, IgG4, V domains shown, VH/VL only) VH: EVQLVESGGGLEQPGGSLRLSCAGSGFTFRDFAMTWVRQAPGKGLEWVSSISGSGGNIYYADSVKGRFTISRDNSKNTLYLQMNSLRAEDTAVYYCAKDRLSVTVRPRYYGLDVWGQGTTVTVSS VL: DIVMTQSPLSLPVTPGEPASISCTSSQSLLYSIGYNYVDWYLQKSGQSPQLLIYLGNKRASGVPDRFSGSGSGTDFTLKISRVEAEDVGFYYCMQSLTSPYTFGQGTKLEIK"
2.1,0.0238 nM,0.18,116 nM,0.78 relative to dupilumab,1.07 relative to dupilumab,0.552 relative to dupilumab,0.897 relative to dupilumab,0.521 relative to dupilumab,0.94 relative to dupilumab,1.01 relative to dupilumab,1 relative to dupilumab,"Construct 5 (mAb414) (antibody, IgG4, V domains shown, VH/VL only) VH: EVQLVESGGGLEQPGGSLRLSCAGSGFTFRDFAMTWVRQAPGKGLEWVSSISGSGDNIYYADSVKGRFTISRDNSKNTLYLQMNSLRAEDTAVYYCAKDRVSITIRPRYYGLDVWGQGTTVTVSS VL: DIVMTQSPLSLPVTPGEPASISCRSSQSLLYSIGKNYVDWYLQKSGQSPQLLIYLGNKRASGVPDRFSGSGSGTDFTLKISRVEAEDVGFYYCMQSLQTPYVFGQGTKLEIK"
1.02,0.0115 nM,0.09,59.5 nM,0.729 relative to dupilumab,1.35 relative to dupilumab,0.879 relative to dupilumab,1.44 relative to dupilumab,0.92 relative to dupilumab,2.06 relative to dupilumab,1.16 relative to dupilumab,0.99 relative to dupilumab,"Construct 6 (mAb415) (antibody, IgG4, V domains shown, VH/VL only) VH: EVQLVESGGGLEQPGGSLRLSCAGSGFTFRDFAMTWVRQAPGKGLEWVSSISGSGDNIYYADSVKGRFTISRDNSKNTLYLQMNSLRAEDTAVYYCAKDRLSVTVRPRYYGLDVWGQGTTVTVSS VL: DIVMTQSPLSLPVTPGEPASISCRSSQGLLYSIGYNYVDWYLQKSGQSPQLLIYLGNKRASGVPDRFSGSGSGTDFTLKISRVEAEDVGFYYCMQSLQTPYTFGQGTKLEIK"
1.24,0.014 nM,0.2,128 nM,0.493 relative to dupilumab,0.862 relative to dupilumab,0.266 relative to dupilumab,0.614 relative to dupilumab,0.442 relative to dupilumab,1.11 relative to dupilumab,1.01 relative to dupilumab,0.989 relative to dupilumab,"Construct 4 (mAb413) (antibody, IgG4, V domains shown, VH/VL only) VH: EVQLVESGGGLEQPGGSLRLSCAGSGFTFRDFAMTWVRQAPGKGLEWVSSISGSGGNIYYADSVKGRFTISRDNSKNTLYLQMNSLRAEDTAVYYCAKDRLSKTIRPRYYGLDVWGQGTTVTVSS VL: DIVMTQSPLSLPVTPGEPASISCTASQSLLYSIGYNYVDWYLQKSGQSPQLLIYLGNNRATGVPDRFSGSGSGTDFTLKISRVEAEDVGFYYCMQALTTPYTFGQGTKLEIK"
1.25,0.0141 nM,0.17,107 nM,0.592 relative to dupilumab,0.671 relative to dupilumab,0.427 relative to dupilumab,0.485 relative to dupilumab,0.414 relative to dupilumab,1.37 relative to dupilumab,1.1 relative to dupilumab,0.968 relative to dupilumab,"Construct 1 (mAb410) (antibody, IgG4, V domains shown, VH/VL only) VH: EVQLVESGGGLEQPGGSLRLSCAGSGFTFRDFAMTWVRQAPGKGLEWVSSISGSGGNIYYADSVKGRFTISRDNSKNTLYLQMNSLRAEDTAVYYCAKDRLSKTIRPRYYGLDVWGQGTTVTVSS VL: DIVMTQSPLSLPVTPGEPASISCRSSQSVLYSIGYNYVDWYLQKSGQSPQLLIYLGSKRASGVPDRFSGSGSGTDFTLKISRVEAEDVGFYYCMQSLDTPYTFGQGTKLEIK"
0.76,0.00856 nM,0.14,85.4 nM,0.767 relative to dupilumab,0.66 relative to dupilumab,0.521 relative to dupilumab,0.506 relative to dupilumab,0.514 relative to dupilumab,0.683 relative to dupilumab,0.877 relative to dupilumab,0.949 relative to dupilumab,"Construct 3 (mAb412) (antibody, IgG4, V domains shown, VH/VL only) VH: EVQLVESGGGLEQPGGSLRLSCAGSGFTFRDFAMTWVRQAPGKGLEWVSSISGSGSSTYYADSVKGRFTISRDNSKNTLYLQMNSLRAEDTAVYYCAKDRLSITVRPRYYGLDVWGQGTTVTVSS VL: DIVMTQSPLSLPVTPGEPASISCRSSQSLLYSIGYNYVDWYLQKSGQSPQLLIYLGNKRASGVPDRFSGSGSGTDFTLKISRVEAEDVGFYYCMQALTTPYTFGQGTKLEIK"
0.83,0.0094 nM,0.25,157 nM,1.01 relative to dupilumab,2.1 relative to dupilumab,1.11 relative to dupilumab,1.05 relative to dupilumab,0.734 relative to dupilumab,1.47 relative to dupilumab,1.01 relative to dupilumab,0.953 relative to dupilumab,"Construct 8 (mAb417) (antibody, IgG4, V domains shown, VH/VL only) VH: EVQLVESGGGLEQPGGSLRLSCAGSGFTFRDFAMTWVRQAPGKGLEWVSSISGSGDNIYYADSVKGRFTISRDNSKNTLYLQMNSLRAEDTAVYYCAKDRLSVTVRPRYYGLDVWGQGTTVTVSS VL: DIVMTQSPLSLPVTPGEPASISCRSTQSLLYSIGKNYVDWYLQKSGQSPQLLIYLGNNRATGVPDRFSGSGSGTDFTLKISRVEAEDVGFYYCMQALTTPYAFGQGTKLEIK"
1.61,0.0181 nM,0.1,64.2 nM,0.507 relative to dupilumab,0.685 relative to dupilumab,0.267 relative to dupilumab,0.314 relative to dupilumab,0.376 relative to dupilumab,0.87 relative to dupilumab,0.799 relative to dupilumab,0.942 relative to dupilumab,"Construct 2 (mAb411) (antibody, IgG4, V domains shown, VH/VL only) VH: EVQLVESGGGLEQPGGSLRLSCAGSGFTFRDFAMTWVRQAPGKGLEWVSSISGSGGNIYYADSVKGRFTISRDNSKNTLYLQMNSLRAEDTAVYYCAKDRLSKTIRPRYYGLDVWGQGTTVTVSS VL: DIVMTQSPLSLPVTPGEPASISCTASQSLLYSIGYNYVDWYLQKSGQSPQLLIYLGSKRASGVPDRFSGSGSGTDFTLKISRVEAEDVGFYYCMQALTTPYTFGQGTKLEIK"

# — US20260193366A1 (APOGEE THERAPEUTICS, published 2026)
